Data published in US20260116966A1 (KEYMED BIOSCIENCES CHENGDU, published 2026).

T1: Cynomolgus GPRC5D (Cynomolgus, UniProt Q9NZD1 1-343 (human entry))
T1 construct: Full length, on stably transfected cells (HEK293-cyGPRC5D, CHO-cyGPRC5D); also called cyGPRC5D
T1 chain: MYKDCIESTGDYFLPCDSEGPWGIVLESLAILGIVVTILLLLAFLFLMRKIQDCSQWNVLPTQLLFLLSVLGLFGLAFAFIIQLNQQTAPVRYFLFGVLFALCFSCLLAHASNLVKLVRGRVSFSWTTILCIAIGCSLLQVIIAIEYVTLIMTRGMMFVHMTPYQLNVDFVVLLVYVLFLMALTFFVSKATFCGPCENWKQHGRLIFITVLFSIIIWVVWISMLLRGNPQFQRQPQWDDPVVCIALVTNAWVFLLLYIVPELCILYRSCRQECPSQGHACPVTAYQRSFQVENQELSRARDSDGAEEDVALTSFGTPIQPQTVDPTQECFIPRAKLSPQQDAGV

T2: human BCMA on HEK293-hBCMA cells (human, UniProt Q02223 1-184)
T2 sequence (looked up): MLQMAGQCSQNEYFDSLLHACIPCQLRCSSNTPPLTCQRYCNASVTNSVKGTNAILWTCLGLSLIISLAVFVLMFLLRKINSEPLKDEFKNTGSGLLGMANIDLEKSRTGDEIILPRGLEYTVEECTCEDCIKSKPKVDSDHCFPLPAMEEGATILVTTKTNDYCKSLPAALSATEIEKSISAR

T3: biotinylated BCMA recombinant antigen (Homo sapiens (Human), UniProt Q02223 1-54, Biotinylated; site and chemistry not stated. The letters do not carry the biotin.)
T3 sequence: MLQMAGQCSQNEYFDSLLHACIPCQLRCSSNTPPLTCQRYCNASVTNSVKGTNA

B1: 2F1 × CD3 H4K5 GPRC5D×CD3 κλ bispecific antibody variant (bispecific antibody, human IgG4 S228P, kappa, lambda)
heavy 1: QVQLVQSGAEVKKPGSSVKVSCKASGYSFTGYTMNWVREAPGQGLEWMGLINPYNGGTRYNQKFQGRVTITADESTSTAYMELSSLRSEDTAVYYCARWALRYGMDYWGQGTLVTVSSASTKGPSVFPLAPCSRSTSESTAALGCLVKDYFPEPVTVSWNSGALTSGVHTFPAVLQSSGLYSLSSVVTVPSSSLGTKTYTCNVDHKPSNTKVDKRVESKYGPPCPPCPAPEFEGGPSVFLFPPKPKDTLMISRTPEVTCVVVDVSQEDPEVQFNWYVDGVEVHNAKTKPREEQFNSTYRVVSVLTVLHQDWLNGKEYKCKVSNKGLASSIEKTISKAKGQPREPQVCTLPPSQEEMTKNQVSLSCAVKGFYPSDIAVEWESNGQPENNYKTTPPVLDSDGSFFLVSKLTVDKSRWQEGNVFSCSVMHEALHNHYTQKSLSLSLGK
light 1: DIQMTQSPSSLSASVGDRVTITCQASQNVGTNVAWYQKKPGQAPKALIYSASYLNSGVPSRFSGSGSGTDFTFTISSLQPEDIATYFCQQYNSYLLTFGGGTKVEIKRTVAAPSVFIFPPSDEQLKSGTASVVCLLNNFYPREAKVQWKVDNALQSGNSQESVTEQDSKDSTYSLSSTLTLSKADYEKHKVYACEVTHQGLSSPVTKSFNRGEC
heavy 2: EVQLVESGGGLVQPGGSLRLSCAASGFTFNTYAMNWVRKAPGKGLEWVGRIRSKYNNYATYYADSVKDRFTISRDDSKNSLYLQMNSLKTEDTAVYYCVRHGNFGNSYVSWFAYWGQGTLVTVSSASTKGPSVFPLAPCSRSTSESTAALGCLVKDYFPEPVTVSWNSGALTSGVHTFPAVLQSSGLYSLSSVVTVPSSSLGTKTYTCNVDHKPSNTKVDKRVESKYGPPCPPCPAPEFEGGPSVFLFPPKPKDTLMISRTPEVTCVVVDVSQEDPEVQFNWYVDGVEVHNAKTKPREEQFNSTYRVVSVLTVLHQDWLNGKEYKCKVSNKGLASSIEKTISKAKGQPREPQVYTLPPCQEEMTKNQVSLWCLVKGFYPSDIAVEWESNGQPENNYKTTPPVLDSDGSFFLYSKLTVDKSRWQEGNVFSCSVMHEALHNHYTQKSLSLSLGK
light 2: QAVVTQEPSLTVSPGGTVTLTCRSSTGAVTTSNYANWVQEKPGQAPRGLIGGTNKRAPWTPARFSGSLLGGKAALTITGAQAEDEAEYYCVLWYSNLWVFGGGTKLTVLGQPKAAPSVTLFPPSSEELQANKATLVCLISDFYPGAVTVAWKADSSPVKAGVETTTPSKQSNNKYAASSYLSLTPEQWKSHRSYSCQVTHEGSTVEKTVAPTECS
notes: also called h2F1 H4K5
B2: BCMA × CD3 κλ005 bispecific antibody (bispecific antibody, human IgG4 S228P, kappa, lambda)
heavy 1: QVQLVQSGSELKKPGASVKVSCKASGYIFTNFGMNWVREAPGQGLEWMGWINTYTGEQIYADGFTGRFVFSLDTSVSTAYLQISSLKAEDTAVYFCARGEIYYGYDVGFVYWGQGTLVTVSS
light 1: DIVLTQSPASLAVSPGQRATITCRASKSVSTSGYSYMHWYQKKPGQPPKLLIYLASNLESGVPARFSGSGSGTDFTLTINPVEAEDTANYYCQHSRELPWTFGQGTKVEIKRTVAAPSVFIFPPSDEQLKSGTASVVCLLNNFYPREAKVQWKVDNALQSGNSQESVTEQDSKDSTYSLSSTLTLSKADYEKHKVYACEVTHQGLSSPVTKSFNRGEC
heavy 2: B1 heavy 2
light 2: B1 light 2
notes: they are not tied to the name κλ005 in one sentence; also called BCMA×CD3 bispecific antibody

How the values were obtained:
[1] = molecular target: T4, human GPRC5D (human, UniProt Q9NZD1 1-345); experiment: cell-based or functional assay
[2] = molecular target: T5, CD3 receptor on the surface of Jurkat cells (human, UniProt P07766 23-207); experiment: cell-based or functional assay
[3] = molecular target: T4, human GPRC5D; experiment: cell-based or functional assay; remark: listed apart in the source
[4] = molecular target: T4, human GPRC5D; experiment: flow cytometry, MM.1R cells
Experimental: The cell suspension of MM.1R cells in logarithmic growth phase was adjusted to a concentration of 5×10⁵ cells/mL, and 100 μL per well was added to a 96-well U-shaped plate, and centrifuged at 300 g for 5 min. The supernatant was discarded. […] The primary antibody was washed away, and 50 μL/well Alexa Fluro647 labeled goat anti-human IgG FC (1:300 dilution) was added, and incubated on ice for 20 min. After washing once, 50 μL/well of PI was added, incubated for 5 min, and detected by flow cytometry.

[5] = molecular target: T5, CD3 receptor on the surface of Jurkat …; experiment: flow cytometry, Jurkat cells
Experimental: The cell concentration was adjusted with 4% calf serum to 5×10⁵ cells/mL. 100 μL per well was added to a 96-well U-shaped plate, and centrifuged at 300 g. The supernatant was removed. […] The secondary antibody 50 μL/well of Alexa Fluro647 labeled goat anti-human IgG Fc (1:300 dilution) was added, and incubated on ice for 20 min. After washing once, 50 μL/well of PI was added, incubated for 5 min, and detected by flow cytometry.

[6] = molecular target: T4, human GPRC5D; experiment: flow cytometry, HEK293-hGPRC5D cells
Experimental: (§1) HEK293-hGPRC5D and HEK293-cyGPRC5D stably transfected cells in logarithmic growth phase were respectively adjusted to a cell density of 5×10⁵ cells/mL. Then, 100 μl/well of the cell suspension was added to a 96-well U-shaped plate, and centrifuged at 300 g for 5 min. The supernatant was discarded. […] The secondary antibody 50 μL/well of Alexa Fluro647 labeled goat anti-human IgG Fe (1:300 dilution) was added, and incubated on ice for 20 min. After washing once, 50 μL/well of PI solution (1:300) was added, incubated for 5 min, and detected by flow cytometry.

[7] = molecular target: T4, human GPRC5D; experiment: flow cytometry, HEK293-hGPRC5D cells; remark: listed apart in the source
Experimental: Cell suspensions of HEK293-hGPRC5D and HEK293-hBCMA stably transfected cells in logarithmic growth phase were adjusted to 5×10⁵ cells/ml. Then, 100 μl/well of the cell suspension was added to a 96-well U-shaped plate, and centrifuged at 300 g for 5 min. The supernatant was discarded. 100 μL per well of serially diluted antibody was added, and incubated at 4° C. for 60 min. The secondary antibody 50 μL/well of Alexa Fluro647 labeled goat anti-human IgG Fc (1:300 dilution) was added, and incubated on ice for 20 min. After washing once, 50 μL/well of PI solution was added, incubated for 5 min, and detected by flow cytometry.

[8] = molecular target: T1, Cynomolgus GPRC5D; experiment: flow cytometry, HEK293-cyGPRC5D cells
Experimental: as §1

[9] = molecular target: T1, Cynomolgus GPRC5D; experiment: flow cytometry, HEK293-cyGPRC5D cells against HEK293-hGPRC5D cells
Experimental: as §1

[10] = molecular target: T2, human BCMA on HEK293-hBCMA cells; experiment: cell-based or functional assay
[11] = molecular target: T2, human BCMA on HEK293-hBCMA cells; experiment: flow cytometry, HEK293-hBCMA cells
[12] = molecular target: T3, biotinylated BCMA recombinant antigen; experiment: BLI, biotinylated antigen on SA probe, antibody as analyte
Text: The affinity of GPRC5D×BCMA×CD3 triTCE antibody to BCMA and CD3 recombinant antigens was detected by Bio-layer interferometry (BLI/Gator prime). Biotinylated BCMA antigen or CD3e antigen was captured by SA probe, and then the signals of binding to and dissociation from the probe were detected by using the triTCE antibody as an analyte.

[13] = molecular target: T6, biotinylated CD3 recombinant antigen (CD3εγ) (Homo sapiens (Human), UniProt P07766 23-126; P09693 23-116, Biotinylated; site and chemistry not stated. The letters do not carry the biotin.); experiment: as above
T6 construct: also called CD3e antigen; copies: 1 + 1
T6 sequence (P07766 23-126 limits assumed, chain 1 of 2): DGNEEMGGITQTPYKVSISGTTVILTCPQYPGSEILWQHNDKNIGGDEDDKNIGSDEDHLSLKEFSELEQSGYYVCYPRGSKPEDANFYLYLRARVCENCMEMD
T6 sequence (P09693 23-116 limits assumed, chain 2 of 2): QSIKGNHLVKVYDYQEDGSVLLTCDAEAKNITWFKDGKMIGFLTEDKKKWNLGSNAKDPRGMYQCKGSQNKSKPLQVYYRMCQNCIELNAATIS

T4 sequence (Q9NZD1 whole entry): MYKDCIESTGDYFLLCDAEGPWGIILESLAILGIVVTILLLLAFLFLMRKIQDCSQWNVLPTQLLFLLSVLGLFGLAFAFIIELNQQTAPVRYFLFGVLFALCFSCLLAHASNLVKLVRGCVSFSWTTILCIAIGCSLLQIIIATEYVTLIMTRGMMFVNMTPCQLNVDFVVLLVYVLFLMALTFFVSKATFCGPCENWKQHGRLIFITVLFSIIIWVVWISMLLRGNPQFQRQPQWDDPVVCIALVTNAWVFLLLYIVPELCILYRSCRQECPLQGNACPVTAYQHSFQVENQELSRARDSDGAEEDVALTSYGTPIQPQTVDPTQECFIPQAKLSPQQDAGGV
T5 sequence (P07766 23-207): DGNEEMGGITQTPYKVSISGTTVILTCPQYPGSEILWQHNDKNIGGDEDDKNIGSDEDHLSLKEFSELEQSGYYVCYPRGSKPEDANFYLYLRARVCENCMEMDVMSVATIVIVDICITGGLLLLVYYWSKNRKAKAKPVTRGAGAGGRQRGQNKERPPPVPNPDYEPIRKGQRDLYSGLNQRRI

Binder | TDCC, EC50 (nM), MM.1R [1] | Jurkat-NFAT-luc, EC50 [2] | TDCC EC50 (nM), HEK293-hGPRC5D [3] | TDCC EC50 (nM), MM.1S [3] | TDCC EC50 (nM), NCI-H929 [3] | EC50 [4] | EC50 [5] | EC50 [6] | EC50 [7] | EC50 [8] | fold difference of affinity, Cynomolgus GPRC5D against human GPRC5D [9] | TDCC EC50 (nM), HEK293-hBCMA [10] | EC50 [11] | Kd [12] | Kd [13]
B1 | 0.008 nM | 0.662 nM | 0.014 nM | 0.017 nM | 0.036 nM | 15.7 nM | 1.9 nM | 2.8 nM | 8.4 nM | 12.8 nM | < 5 fold | – | – | – | –
B2 | – | – | – | – | – | – | – | – | – | – | – | 0.015 nM | 1.9 nM | 1.1 nM | 45.4 nM
